From article PMC10397247

Columns and labels:
[1] = biological target: T1, Core_IIII-es_KKKE; assay: two-hybrid library CCmax; details: mean of both orientations;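 also: natural log of median RNA to DNA barcode read ratio; higher means stronger binding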
T1 chain: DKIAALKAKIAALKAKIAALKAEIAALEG

[2] = biological target: T2, 4H1615-AA; assay: two-hybrid library CCmax;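 also: natural log of median RNA to DNA barcode read ratio; higher means stronger binding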
T2 chain: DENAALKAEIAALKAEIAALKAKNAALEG

[3] = biological target: T3, 4H1650-AA; assay: two-hybrid library CCmax; details: mean of both orientations;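 also: natural log of median RNA to DNA barcode read ratio; higher means stronger binding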
T3 chain: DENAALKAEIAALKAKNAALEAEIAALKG

[4] = biological target: T4, 4H175-AA; assay: two-hybrid library CCmax; details: mean of both orientations;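 also: natural log of median RNA to DNA barcode read ratio; higher means stronger binding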
T4 chain: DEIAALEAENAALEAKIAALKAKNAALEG

[5] = biological target: T5, 4H1765-AA; assay: two-hybrid library CCmax; details: mean of both orientations;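 also: natural log of median RNA to DNA barcode read ratio; higher means stronger binding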
T5 chain: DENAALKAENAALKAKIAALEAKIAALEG

[6] = biological target: T6, 4H1821-AA; assay: two-hybrid library CCmax; details: mean of both orientations;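 also: natural log of median RNA to DNA barcode read ratio; higher means stronger binding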
T6 chain: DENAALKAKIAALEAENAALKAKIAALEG

[7] = biological target: T7, 4H1828-AA; assay: two-hybrid library CCmax; details: mean of both orientations
T7 chain: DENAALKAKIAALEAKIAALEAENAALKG

[8] = biological target: T8, 4H1930-AA; assay: two-hybrid library CCmax; details: mean of both orientations
T8 chain: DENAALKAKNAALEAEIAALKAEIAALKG

[9] = biological target: T9, 4H2124-AA; assay: two-hybrid library CCmax; details: mean of both orientations
T9 chain: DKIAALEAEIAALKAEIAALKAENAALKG

[10] = biological target: T10, 4H2165-AA; assay: two-hybrid library CCmax; details: mean of both orientations
T10 chain: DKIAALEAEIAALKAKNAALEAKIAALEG

[11] = biological target: T11, 4H2253-AA; assay: two-hybrid library CCmax
T11 chain: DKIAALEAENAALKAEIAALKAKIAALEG

[12] = biological target: T12, 4H2330-AA; assay: two-hybrid library CCmax; details: mean of both orientations
T12 chain: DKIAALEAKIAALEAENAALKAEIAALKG

[13] = biological target: T13, 4H2343-AA; assay: two-hybrid library CCmax; details: mean of both orientations
T13 chain: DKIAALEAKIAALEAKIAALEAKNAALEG

[14] = biological target: T14, 4H2466-AA; assay: two-hybrid library CCmax; details: mean of both orientations
T14 chain: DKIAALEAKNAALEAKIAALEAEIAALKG

[15] = biological target: T15, 4H249-AA; assay: two-hybrid library CCmax; details: mean of both orientations
T15 chain: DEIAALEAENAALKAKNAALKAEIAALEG

[16] = biological target: T16, 4H2592-AA; assay: two-hybrid library CCmax; details: mean of both orientations
T16 chain: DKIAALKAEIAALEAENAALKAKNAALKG

[17] = biological target: T17, 4H2732-AA; assay: two-hybrid library CCmax; details: mean of both orientations
T17 chain: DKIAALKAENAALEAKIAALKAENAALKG

[18] = biological target: T18, 4H2774-AA; assay: two-hybrid library CCmax; details: mean of both orientations
T18 chain: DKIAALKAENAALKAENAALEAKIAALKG

[19] = biological target: T19, 4H2931-AA; assay: two-hybrid library CCmax; details: mean of both orientations
T19 chain: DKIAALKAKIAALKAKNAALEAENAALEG

[20] = biological target: T20, 4H3001-AA; assay: two-hybrid library CCmax; details: mean of both orientations
T20 chain: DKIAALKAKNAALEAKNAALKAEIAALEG

[21] = biological target: T21, 4H3015-AA; assay: two-hybrid library CCmax; details: mean of both orientations
T21 chain: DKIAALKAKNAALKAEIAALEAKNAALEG

[22] = biological target: T22, 4H3073-AA; assay: two-hybrid library CCmax; details: mean of both orientations
T22 chain: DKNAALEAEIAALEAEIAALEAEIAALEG

[23] = biological target: T23, 4H3438-AA; assay: two-hybrid library CCmax; details: mean of both orientations
T23 chain: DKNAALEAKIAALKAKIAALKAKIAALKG

[24] = biological target: T24, 4H347-AA; assay: two-hybrid library CCmax; details: mean of both orientations
T24 chain: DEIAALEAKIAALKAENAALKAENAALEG

[25] = biological target: T25, 4H406-AA; assay: two-hybrid library CCmax; details: mean of both orientations
T25 chain: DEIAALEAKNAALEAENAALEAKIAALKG

[26] = biological target: T26, 4H452-AA; assay: two-hybrid library CCmax; details: mean of both orientations
T26 chain: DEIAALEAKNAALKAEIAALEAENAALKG

[27] = biological target: T27, 4H56-AA; assay: two-hybrid library CCmax; details: mean of both orientations
T27 chain: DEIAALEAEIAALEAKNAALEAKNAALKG

[28] = biological target: T28, 4H_APH; assay: two-hybrid library CCmax; details: mean of both orientations
T28 chain: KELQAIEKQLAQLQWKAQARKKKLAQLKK

[29] = biological target: T29, 4H_BCR; assay: two-hybrid library CCmax; details: mean of both orientations
T29 chain: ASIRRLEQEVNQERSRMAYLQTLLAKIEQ

[30] = biological target: 4H_GCN4; assay: two-hybrid library CCmax
4H_GCN4, sequence (chain, as listed by the source): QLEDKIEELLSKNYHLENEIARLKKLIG

[31] = biological target: GCN2_T; assay: two-hybrid library CCmax; details: mean of both orientations
[32] = biological target: T30, GCN4-SR; assay: two-hybrid library CCNG1
T30 chain: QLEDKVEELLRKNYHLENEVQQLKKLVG

[33] = biological target: T30, GCN4-SR; assay: two-hybrid library CCmax
[34] = biological target: T31, Core_INII-es_KKKK; assay: two-hybrid library CCmax
T31 chain: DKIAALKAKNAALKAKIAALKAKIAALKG

[35] = biological target: T32, 4H19-bH; assay: two-hybrid library CCNG1
T32 chain: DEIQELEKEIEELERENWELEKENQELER

[36] = biological target: T33, 4H2696-bH; assay: two-hybrid library CCNG1
T33 chain: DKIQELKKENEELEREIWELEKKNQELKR

[37] = biological target: T34, 4H2883-bH; assay: two-hybrid library CCNG1
T34 chain: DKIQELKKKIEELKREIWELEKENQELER

[38] = biological target: T35, 4H2937-bH; assay: two-hybrid library CCNG1
T35 chain: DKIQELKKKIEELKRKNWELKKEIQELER

[39] = biological target: T36, 4H2944-bH; assay: two-hybrid library CCNG1
T36 chain: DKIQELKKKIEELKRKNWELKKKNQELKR

[40] = biological target: T37, 4H342-bH; assay: two-hybrid library CCNG1
T37 chain: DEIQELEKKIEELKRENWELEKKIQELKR

[41] = biological target: T38, 4H48-bH; assay: two-hybrid library CCNG1
T38 chain: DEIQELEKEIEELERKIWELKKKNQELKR

[42] = biological target: T39, 4H491-bH; assay: two-hybrid library CCNG1
T39 chain: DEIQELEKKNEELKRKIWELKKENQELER

For DEIAALEAEIAALEAEIAALEAKIAALKG [Core_IIII-es_EEEK], the interaction score [1] was 2.4.

Work on DENAALKAEIAALKAEIAALKAKNAALEG [4H1615-AA] yielded an interaction score [2] of 1.78, an interaction score [3] of -1.46 and an interaction score [4] of -1.43. It also gave an interaction score [5] of -1.45, an interaction score [6] of -1.23 and an interaction score [7] of -1.78. For the same binder, the interaction score [8] was -1.07, the interaction score [9] was -1.09 and the interaction score [10] was -1.55. For the same binder, the interaction score [11] was -1.57, the interaction score [12] was -1.4 and the interaction score [13] was -0.958. For the same binder, the interaction score [14] was -1.57, the interaction score [15] was -2.1 and the interaction score [16] was -1.27. The interaction score [17] was -1.79, the interaction score [18] was -1.47 and the interaction score [19] was -1.79. It also gave an interaction score [20] of -1.81, an interaction score [21] of -1.68 and an interaction score [22] of -0.406. For the same binder, the interaction score [23] was -0.739, the interaction score [24] was -1.38 and the interaction score [25] was -1.66. The interaction score [26] was -1.96, the interaction score [27] was -1.15 and the interaction score [28] was -1.58. It also gave an interaction score [29] of -1.79, an interaction score [30] of -1.57 and an interaction score [31] of -1.38.

QLEDKVEELLRKNYHLENEVQQLKKLVG [GCN4-SR] gave an interaction score [32] of -2.35 and an interaction score [33] of -1.35.

Binder DEIAALEAENAALEAEIAALEAEIAALEG [Core_INII-es_EEEE] has an interaction score [34] of 1.29.

DEIQELEKEIEELERENWELEKENQELER [4H19-bH] was tested, and the interaction score [35] was -0.777, the interaction score [36] was 0.41 and the interaction score [37] was 1.05. The interaction score [38] was 0.634, the interaction score [39] was 1.17 and the interaction score [40] was -0.785. It also gave an interaction score [41] of -1.56 and an interaction score [42] of 0.299.
